The target of assay [1] is B-cell lymphoma extra-large protein (Bcl-xL), first 209 amino acids with N-terminal avitag (UniProt Q07817). Nature of the assay: equilibrium AMMP, divalent model.
Assay [2] has the same target. Kind of assay: equilibrium ELISA, divalent model. A general note: In an ELISA, binding on a coated surface is turned into a signal by an enzyme label.
Assay [3] shares this target. Nature of the assay: forward equilibrium assay, Kd-only fit, divalent model.
For assay [4] the target is unchanged. Nature of the assay: forward equilibrium assay, Kd-only fit, monovalent model (said to fit poorly).
Assay [5] shares this target. Kind of assay: forward equilibrium assay, Kd and [L]0 fit simultaneously, monovalent and divalent models.
For assay [6] the target is unchanged. Kind of assay: Kd2 (monovalently bound mAb to a second Bcl-xL), divalent model, reverse assay only, known [L]0.
Assay [7] has the same target. Kind of assay: Kd1 (free mAb to Bcl-xL), divalent model, forward and reverse equilibrium assays combined, known [L]0.
Assay [8] has the same target. Kind of assay: Kd2 (monovalently bound mAb to a second Bcl-xL), divalent model, reverse assay only, Kd and [L]0 fit simultaneously.
The target is the same in assay [9]. Kind of assay: Kd1 (free mAb to Bcl-xL), divalent model, forward and reverse equilibrium assays combined, Kd and [L]0 fit simultaneously.
For assay [10] the target is unchanged. Kind of assay: reverse equilibrium assay, divalent model; percent of monovalently bound mAb that does not interact with immobilized Bcl-xL.

Where “and” joins values, the source holds several entries; their conditions need not be identical. Equal entries are not always repeated.

The record followed here is patent US20180172683A1, “METHODS FOR ANALYZING THE INTERACTION BETWEEN A TARGET PROTEIN AND A LIGAND” (UNIVERSITY OF SOUTHERN CALIFORNIA, priority 2015, published 2018).

The Kd is the concentration at which binding is half-saturated.

Chain of B-cell lymphoma extra-large protein (Bcl-xL), first 209 amino acids with N-terminal avitag (Q07817 other isoform, or with tags, fused parts or gaps): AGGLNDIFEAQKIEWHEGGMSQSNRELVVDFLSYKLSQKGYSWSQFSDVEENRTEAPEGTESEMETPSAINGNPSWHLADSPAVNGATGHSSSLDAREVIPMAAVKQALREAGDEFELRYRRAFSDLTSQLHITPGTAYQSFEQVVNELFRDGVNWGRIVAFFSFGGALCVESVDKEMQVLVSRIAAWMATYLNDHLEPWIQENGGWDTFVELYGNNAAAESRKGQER

As to “54H6 monoclonal antibody against Bcl-xL (commercial)”, the Kd is 0.012 nM in assay [1]; 0.02 nM in assay [2]; 0.014 nM in [3]; 0.038 nM in assay [4]; 0.011 nM in assay [5]; 3.3 nM in [6]. The figures for the Kd in [7], in [8] and in assay [9] were 0.021 nM, 4 nM and 0.019 nM, respectively. The percent of monovalently bound mAb not interacting with immobilized Bcl-xL in [10] was 74% and 73%.
